The target in this experiment is type I collagen. Nature of the experiment: cell-based or functional assay.

Consider one substance from US20240026334A1.

elastin came in with an unbound DNA in DNA binding assay (1:1 elastin to collagen) of 0.077 µM and an unbound DNA in DNA binding assay (1:2 elastin to collagen) of 0.116 µM.
